Here are results for five molecules from patent US20030158083A1, “Method of effecting angiogenesis by modulating the function of a novel endothelia phosphatase” (The Procter & Gamble Company, priority 2002, published 2003).

A short description of series [1]: Phosphatase activity with fluorogenic substrate DiFMUP. It counts as biochemical. Here is the method:
Purified, recombinant KAPh phosphatase domain (amino acids 83-464 SEQ ID NO 4) (100 μg/mL) and full-length PTEN (amino acids 1-403) (100 μg/mL) were each mixed with a fluorogenic phosphatase substrate 6,8-difluoro-4-methylumbelliferyl phosphate (DiFMUP) (Molecular Probes, Eugene, Oreg.) at a final concentration of a 100 μM in assay buffer (10 mM sodium acetate, pH 6.0, 150 mM NaCl, 5 mM DTT). Following incubation at ambient temperature for 15 or 60 min., the fluorescence intensity of the 6,8-difluoro-4-methylumbelliferone (DiFMU) product was measured in triplicate and used as an assessment of phosphatase activity. A Victor 5 microplate reader from Wallac (Turku, Finland) was used to read the fluorescence intensity from 384-well microplates (Corning Inc., Corning, N.Y.).

The nature of series [2]: Peptide phosphatase assay (BIOMOL green). It counts as biochemical. Conditions: any peptide substrates examined; data not shown.
For series [3], the target named is T1, 6xHis-tagged KAPh full-length protein (expressed in HEK 293 cells from pcDNA4/HisMax) (Homo sapiens, UniProt Q63HR2 26-1409, limits assumed).
T1 construct: Used as HEK 293 cell lysate; also called full-length KAPh; hexahistidine-tagged full-length KAPh
T1 sequence: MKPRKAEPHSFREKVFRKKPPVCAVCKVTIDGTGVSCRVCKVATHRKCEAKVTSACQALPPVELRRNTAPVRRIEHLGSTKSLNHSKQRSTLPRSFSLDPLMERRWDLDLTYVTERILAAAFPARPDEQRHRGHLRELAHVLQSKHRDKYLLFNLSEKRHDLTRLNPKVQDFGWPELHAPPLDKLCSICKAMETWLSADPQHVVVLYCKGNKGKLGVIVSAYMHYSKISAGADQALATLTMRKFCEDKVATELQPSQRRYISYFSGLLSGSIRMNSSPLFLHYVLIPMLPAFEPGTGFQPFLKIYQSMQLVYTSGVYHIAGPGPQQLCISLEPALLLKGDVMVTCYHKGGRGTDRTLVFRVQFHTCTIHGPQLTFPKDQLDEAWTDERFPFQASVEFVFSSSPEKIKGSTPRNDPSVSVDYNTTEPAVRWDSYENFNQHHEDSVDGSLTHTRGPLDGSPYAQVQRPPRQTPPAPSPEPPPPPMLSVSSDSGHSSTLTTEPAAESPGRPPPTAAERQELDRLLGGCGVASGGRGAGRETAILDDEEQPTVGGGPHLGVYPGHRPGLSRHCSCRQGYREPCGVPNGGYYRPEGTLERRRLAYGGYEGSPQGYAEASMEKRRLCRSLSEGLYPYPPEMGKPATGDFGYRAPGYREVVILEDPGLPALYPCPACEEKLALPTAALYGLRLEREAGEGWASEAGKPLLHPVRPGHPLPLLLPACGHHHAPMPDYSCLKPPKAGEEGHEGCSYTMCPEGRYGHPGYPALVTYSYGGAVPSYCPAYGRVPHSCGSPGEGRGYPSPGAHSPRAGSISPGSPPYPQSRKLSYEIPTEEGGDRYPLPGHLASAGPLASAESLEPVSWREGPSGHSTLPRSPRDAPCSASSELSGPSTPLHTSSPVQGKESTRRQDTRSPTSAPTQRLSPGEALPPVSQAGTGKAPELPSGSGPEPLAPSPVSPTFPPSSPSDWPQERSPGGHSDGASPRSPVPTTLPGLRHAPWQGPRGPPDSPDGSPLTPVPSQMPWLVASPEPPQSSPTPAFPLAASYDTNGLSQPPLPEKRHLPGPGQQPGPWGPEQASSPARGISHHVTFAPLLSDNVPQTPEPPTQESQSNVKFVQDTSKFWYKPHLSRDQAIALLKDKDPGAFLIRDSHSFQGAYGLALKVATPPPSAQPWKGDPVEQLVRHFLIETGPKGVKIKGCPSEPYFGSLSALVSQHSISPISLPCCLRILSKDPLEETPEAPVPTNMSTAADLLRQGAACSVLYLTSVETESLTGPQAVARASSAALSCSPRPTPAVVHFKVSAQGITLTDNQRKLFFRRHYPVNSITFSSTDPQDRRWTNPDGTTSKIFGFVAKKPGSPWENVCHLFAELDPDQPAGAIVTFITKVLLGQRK
In words: GST pull-down from HEK 293 lysate, anti-HisG blot.

Series [4] addresses T2, GST (baculovirus-expressed glutathione S-transferase alone) (UniProt P08515 1-218 = GST).
T2 construct: Control; also called GST alone
In words: GST pull-down from HEK 293 lysate, anti-HisG blot.

T2 sequence (P08515 whole entry): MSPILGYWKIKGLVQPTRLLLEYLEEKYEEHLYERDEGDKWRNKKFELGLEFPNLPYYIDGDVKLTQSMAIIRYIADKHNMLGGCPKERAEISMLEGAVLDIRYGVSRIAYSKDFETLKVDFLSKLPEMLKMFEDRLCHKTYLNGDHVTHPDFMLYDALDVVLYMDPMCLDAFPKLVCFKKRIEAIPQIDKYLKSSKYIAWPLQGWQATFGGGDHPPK

“PTEN: full-length PTEN (amino acids 1-403), tumor suppressor with phosphatase activity, used as comparator [reference compound]”: the “fluorescent product (DiFMU) generated, fold over buffer control” value in series [1] (100 μg/mL protein, 100 μM DiFMUP, pH 6.0, ambient temperature, 60 min incubation) came out at 6 fold. Moreover, the “phosphatase activity using peptide substrates” value in series [2] is reported as “unable to detect significant, reproducible phosphatase activity”.

B1: KAPh phosphatase domain: purified, recombinant KAPh phosphatase domain (amino acids 83-464 SEQ ID NO 4) (protein, listed as Homo sapiens)
chain: LNHSKQRSTLPRSFSLDPLMERRWDLDLTYVTERILAAAFPARPDEQRHRGHLRELAHVLQSKHRDKYLLFNLSEKRHDLTRLNPKVQDFGWPELHAPPLDKLCSICKAMETWLSADPQHVVVLYCKGNKGKLGVIVSAYMHYSKISAGADQALATLTMRKFCEDKVATELQPSQRRYISYFSGLLSGSIRMNSSPLFLHYVLIPMLPAFEPGTGFQPFLKIYQSMQLVYTSGVYHIAGPGPQQLCISLEPALLLKGDVMVTCYHKGGRGTDRTLVFRVQFHTCTIHGPQLTFPKDQLDEAWTDERFPFQASVEFVFSSSPEKIKGSTPRNDPSVSVDYNTTEPAVRWDSYENFNQHHEDSVDGSLTHTRGPLDGSPYAQVQ
For B1, the “phosphatase activity over time” value in series [1] (15 or 60 min incubation with DiFMUP) is listed as “time-dependent increase in phosphatase activity”.

B2: GST Tie1 wild-type (GST fusion of the intracellular domain of human Tie1) (receptor, UniProt P35590 785-1138, looked up)
chain: CIRRSCLHRRRTFTYQSGSGEETILQFSSGTLTLTRRPKLQPEPLSYPVLEWEDITFEDLIGEGNFGQVIRAMIKKDGLKMNAAIKMLKEYASENDHRDFAGELEVLCKLGHHPNIINLLGACKNRGYLYIAIEYAPYGNLLDFLRKSRVLETDPAFAREHGTASTLSSRQLLRFASDAANGMQYLSEKQFIHRDLAARNVLVGENLASKIADFGLSRGEEVYVKKTMGRLPVRWMAIESLNYSVYTTKSDVWSFGVLLWEIVSLGGTPYCGMTCAELYEKLPQGYRMEQPRNCDDEVYELMRQCWRDRPYERPPFAQIALQLGRMLEARKAYVNMSLFENFTYAGIDATAEEA
modifications: some degree of tyrosine phosphorylation after in vitro autophosphorylation; sites not listed
notes: domain: intracellular domain; also called Tie1 kinase; not shown: glutathione S-transferase (GST) encoded by the pAcGHLT baculovirus transfer vector (Pharmingen); in-frame fusion, linker
With B2, in series [3], the binding result is listed as “no binding”.

B3: 6xHis-tagged KAPh SH2 domain (expressed in HEK 293 cells from pcDNA4/HisMax) (other, not shown: small tags and cut ends)
chain: WYKPHLSRDQAIALLKDKDPGAFLIRDSHSFQGAYGLALKVATPPPSAQPWKGDPVEQLVRHFLIETGPKGVKIKGCPSEPYFGSLSALVSQHSISPISLPCCLRILS
notes: Used as HEK 293 cell lysate; also called hexahistidine-tagged KAPh SH2 domain; KAPh SH2 domain-containing protein fragment
For the molecule B3, the binding result in series [4] is on record as “no binding”.

B4: GST Tie2 wild-type (GST fusion of the intracellular domain of human Tie2/TEK) (receptor, UniProt Q02763 770-1124, looked up)
chain: LQLKRANVQRRMAQAFQNVREEPAVQFNSGTLALNRKVKNNPDPTIYPVLDWNDIKFQDVIGEGNFGQVLKARIKKDGLRMDAAIKRMKEYASKDDHRDFAGELEVLCKLGHHPNIINLLGACEHRGYLYLAIEYAPHGNLLDFLRKSRVLETDPAFAIANSTASTLSSQQLLHFAADVARGMDYLSQKQFIHRDLAARNILVGENYVAKIADFGLSRGQEVYVKKTMGRLPVRWMAIESLNYSVYTTNSDVWSYGVLLWEIVSLGGTPYCGMTCAELYEKLPQGYRLEKPLNCDDEVYDLMRQCWREKPYERPSFAQILVSLNRMLEERKTYVNTTLYEKFTYAGIDCSAEEAA
modifications: some degree of tyrosine phosphorylation after in vitro autophosphorylation; sites not listed
notes: domain: intracellular domain; also called Tie2 kinase; not shown: glutathione S-transferase (GST) encoded by the pAcGHLT baculovirus transfer vector (Pharmingen); in-frame fusion, linker
Take B4: the binding result in series [3] is “no binding”.
